According to patent publication US20070207498A1, “Design and construction of dimeric concanavalin a mutants” (LifeScan, Inc., priority 2005, published 2007):
Values belong to the molecule of their own block, whether it stands above or below them.

Key:
[1] = molecular target: T1, Concanavalin A (ConA) dimer mutant pET32 (D58N, N118C, H121C, E192Q), SEQ ID NOS: 12 and 24 (Canavalia ensiformis, UniProt P02866, D221N/E103Q/H32C/N281C); assay: FRET response of sensors, Cy3.5-labeled pET32 dimer mutant ConA (donor) with Cy5.5-labeled superoxide dismutase (acceptor); type: binding; conditions: 500 mg/dL glucose; Cy5.5-SOD, FIG. 14
T1 construct: made in house
From the text: (§1) Functional properties of recombinant ConA have been characterized by Fluorescence Resonance Energy Transfer (FRET) using a PTI QuantaMaster fluorimeter.
Sensors made with Cy3.5-labeled pET32 dimer mutant ConA and Cy5.5-labeled superoxide dismutase (SOD).

[2] = molecular target: T1, Concanavalin A (ConA) dimer mutant pET32 (D58N, N118C, H121C, E192Q), SEQ ID NOS: 12 and 24; assay: FRET response of sensors, Cy3.5-labeled pET32 dimer mutant ConA (donor) with Alexa647-labeled superoxide dismutase (acceptor); type: binding; conditions: 500 mg/dL glucose; 6 μM to 24 μM ratio, Alexa647-SOD, FIG. 13
From the text: as §1

[3] = molecular target: dye and sugar-labeled therapeutic human serum albumin (tHSA) (human) (UniProt P02768); assay: FRET competition assay (FIG. 12), 4-parameter logistic fit; unlabeled tetramer against labeled tetrameric ConA on HSA
[4] = molecular target: dye and sugar-labeled therapeutic human serum albumin (tHSA) (human) (UniProt P02768); assay: FRET competition assay, 384-well plate: unlabeled tetramer displaces labeled tetrameric ConA from HSA; Ki estimated from EC50 and the concentration of labeled tetramer
[5] = molecular target: T2, dye and sugar-labeled therapeutic human serum albumin (tHSA) (human, UniProt P02768 25-609, sugar-labeled (glycoconjugate); labeled with the acceptor Alexa 647; modified residues not stated); assay: FRET competition assay, 384-well plate: unlabeled competitor displaces labeled tetrameric ConA from HSA; Ki estimated from EC50 and the concentration of labeled tetramer
T2 construct: also called Alexa-HSA; Alexa-labeled Human Serum Albumin
Experimental: Mutant ConA was characterized by FRET. […] The EC₅₀ was calculated using a 4-parameter logistic equation.

Molecule: OC[C@H]1OC(O)[C@H](O)[C@@H](O)[C@@H]1O (some centres unmarked) [glucose]
FRET response to the addition of glucose [1]: ~266%
FRET response to the addition of glucose [2]: approximately 262%

EC50 [3]: 110 nM
Ki [4]: 9.1 nM
Molecule: ConA tetramer (tetrameric ConA used as labeled partner and as unlabeled competitor in the competition binding assay) (from UniProt P02866 30-281)

Ki [5]: ~21 nM
B1: pET32 quad mutant ConA (D58N, N118C, H121C, E192Q), stable dimer (other)
chain: ADTIVAVELDTYPNTDIGDPSYPHIGIDIKSVRSKKTAKWNMQNGKVGTAHIIYNSVNKRLSAVVSYPNADSATVSYDVDLDNVLPEWVRVGLSASTGLYKETNTILSWSFTSKLKSCSTCETNALHFMFNQFSKDQKDLILQGDATTGTDGNLELTRVSSNGSPQGSSVGRALFYAPVHIWESSAVVASFQATFTFLIKSPDSHPADGIAFFISNIDSSIPSGSTGRLLGLFPDAN
modifications: unlabeled as competitor in the FIG. 12 assay; labeled with Cy3.5b / Cy3.5 (donor dye) in the FRET and sensor experiments, labeled residues not stated
notes: also called dimer mutant ConA; pET32 dimer ConA mutant
